In test [1] the target is recombinant human hAα425-503 fragment, truncated variant of the human fibrinogen αC-domain (human). Nature of the test: AUC.
The target is the same in test [2]. Nature of the test: SEC. A general note: In gel filtration, larger molecules generally elute earlier.
Test [3] addresses recombinant bAα374-568 fragment corresponding to the full-length bovine fibrinogen αC-domain (bovine). Nature of the test: AUC.
Test [4] shares this target. Nature of the test: SEC.
Test [5] deals with recombinant hAα392-610 fragment corresponding to the full-length human fibrinogen αC-domain (human). Nature of the test: AUC.
The target is the same in test [6]. Nature of the test: SEC.

What is called Kd is the free concentration of one partner at which half of the binding sites on the other are occupied at equilibrium, for simple one-to-one binding. As a reminder, the stoichiometry N is the number of molecules, sites or subunits per partner or assembly.

Several values for one entry are separate records, joined by “and”; a condition that tells them apart may be missing. Equal entries are not always repeated.

For “recombinant human hAα425-503 fragment, truncated variant of the human fibrinogen αC-domain (domain or fragment)”, in test [1], the Kd was determined as 1140 µM. Also, in test [2], the oligomers (%) at 1.6 mg/mL, 2.0 M NaCl was 43.6%; the oligomers (%) at 3.2 mg/mL, 0.15 M NaCl came out at 1.7%; the oligomers (%) at 3.2 mg/mL, 1.0 M NaCl amounted to 26.2%; the oligomers (%) at 6.3 mg/mL, 0.15 M NaCl is 6.6%. For the same substance, in test [2], the stoichiometry N was 5 and 6.

Turning to “recombinant bAα374-568 fragment corresponding to the full-length bovine fibrinogen αC-domain (domain or fragment)”, in test [3], the Ka amounted to 26100 M⁻¹ and the equilibrium dissociation constant (Kd) worked out at 38.3 µM. For the same substance, in test [4], the oligomers (%) at 1.8 mg/mL, 0.15 M NaCl turned out to be 9.5%; the oligomers (%) at 3.7 mg/mL, 0.15 M NaCl was 27.2%; the oligomers (%) at 3.8 mg/mL, 2.0 M NaCl was 54.4%.

Consider “recombinant hAα392-610 fragment corresponding to the full-length human fibrinogen αC-domain (domain or fragment)”, for which, in test [5], the Ka turned out to be 83200 M⁻¹, the Kd was 12 µM and the stoichiometry N came to 11.3. For the same substance, in test [6], the oligomers (%) at 1.9 mg/mL, 0.15 M NaCl was found to be 15.4%; the oligomers (%) at 3.8 mg/mL, 0.15 M NaCl stood at 32%; the oligomers (%) at 4.0 mg/mL, 2.0 M NaCl stood at 58.5%.

The values above are taken from article PMC2812052.
